Measurements as given in paper PMC3342256.

Key:
[1] = biological target: Plasmodium falciparum P2 (PfP2), recombinant histidine-tagged full length protein (Plasmodium falciparum) (UniProt O00806); assay: dynamic light scattering; PfP2 40 to 180 µM in Tris buffer, pH 7.5, 25°C, freshly prepared samples; size from a calibration of hydrodynamic diameter against molecular weight
[2] = biological target: Plasmodium falciparum P2 (PfP2), recombinant histidine-tagged full length protein (Plasmodium falciparum) (UniProt O00806); assay: multi-angle light scattering; PfP2 250 to 400 µM, freshly prepared sample, HELEOS 8 Wyatt instrument, BSA as standard

**Q.** Which stoichiometry N [1] does the source give for “Plasmodium falciparum P2 (PfP2), recombinant histidine-tagged full length protein (from UniProt O00806 1-112) (natural protein)” here?
**A.** 8 to 9

**Q.** What about the stoichiometry N [2] of the same substance?
**A.** 7 to 8
